From article PMC3281020
pKd: −log10 of the molar value.

What was measured:
[1] = system: Isw1a complex (TAP-purified via Ioc3-TAP, strain YTT1168) (yeast, strain YTT1168); test: magnetic tweezers; conditions: no ATP, end-tethered to glass and bead (1 um), TEM/EMSA: 20 mM (Methods: 10 mM) Tris-HCl pH 8.0, 30 mM KCl, 17.5 mM NaCl, 1 mM Hepes pH 7.6, 0.75% glycerol, 20 min at 30 C, 750 nM DNA in bp, CHD1 tweezers: …
[2] = system: Isw1a complex (TAP-purified via Ioc3-TAP, strain YTT1168) (yeast, strain YTT1168); test: TEM; conditions: no ATP, TEM/EMSA: 20 mM (Methods: 10 mM) Tris-HCl pH 8.0, 30 mM KCl, 17.5 mM NaCl, 1 mM Hepes pH 7.6, 0.75% glycerol, 20 min at 30 C, 750 nM DNA in bp, CHD1 tweezers: …
[3] = system: Isw1a complex (TAP-purified via Ioc3-TAP, strain YTT1168) (yeast, strain YTT1168); test: TEM, competition; conditions: TEM/EMSA: 20 mM (Methods: 10 mM) Tris-HCl pH 8.0, 30 mM KCl, 17.5 mM NaCl, 1 mM Hepes pH 7.6, 0.75% glycerol, 20 min at 30 C, 750 nM DNA in bp, CHD1 tweezers: …

Row | Substance | pKd ([1]; F about 1 pN, tau_on 64 s, tau_off 69 s) | pKd ([1]; extrapolated to zero force, single nucleation complex) | binding signal (% unbound DNA) ([2]; 2 nM Isw1a) | binding signal (% unbound DNA) ([2]; 10 nM Isw1a) | binding signal (% unbound DNA) ([2]; 50 nM Isw1a) | binding signal (% unbound DNA) ([3]; 2 nM Isw1a, 1:1 mixture with scDNA) | binding signal (% unbound DNA) ([3]; 10 nM Isw1a, 1:1 mixture with scDNA) | binding signal (% unbound DNA) ([3]; 50 nM Isw1a, 1:1 mixture with scDNA) | binding signal (% unbound DNA) ([3]; 2 nM Isw1a, 1:1 mixture with linear DNA) | binding signal (% unbound DNA) ([3]; 10 nM Isw1a, 1:1 mixture with linear DNA) | binding signal (% unbound DNA) ([3]; 50 nM Isw1a, 1:1 mixture with linear DNA)
1 | 3.6 kbp tethered DNA (magnetic trap) | 9.00 | 12.00 | – | – | – | – | – | – | – | – | –
2 | linear pBR322 EcoRV-SspI fragment, 3983 bp | – | – | 82 | 53 | 20 | 90 | 73 | 25 | – | – | –
3 | pBR322 negatively supercoiled plasmid | – | – | 57 | 37 | 10 | – | – | – | 59 | 33 | 6
